How the values were obtained:
Assay in all cases: SPR
[1] = biological target: MUC1-ST (4) (UniProt P15941, ST antigen (Neu5Acα2,3Galβ1,3GalNAcα) on the Thr of the Asp-Thr-Arg-Pro moiety)
[2] = biological target: MUC1 TRD-Tn (3) (UniProt P15941, Tn antigen (GalNAcα) on the Thr of the Asp-Thr-Arg-Pro moiety)
[3] = biological target: non-glycosylated MUC1 TRD (2) (UniProt P15941)
non-glycosylated MUC1 TRD (2), sequence (P15941 whole entry, looked up): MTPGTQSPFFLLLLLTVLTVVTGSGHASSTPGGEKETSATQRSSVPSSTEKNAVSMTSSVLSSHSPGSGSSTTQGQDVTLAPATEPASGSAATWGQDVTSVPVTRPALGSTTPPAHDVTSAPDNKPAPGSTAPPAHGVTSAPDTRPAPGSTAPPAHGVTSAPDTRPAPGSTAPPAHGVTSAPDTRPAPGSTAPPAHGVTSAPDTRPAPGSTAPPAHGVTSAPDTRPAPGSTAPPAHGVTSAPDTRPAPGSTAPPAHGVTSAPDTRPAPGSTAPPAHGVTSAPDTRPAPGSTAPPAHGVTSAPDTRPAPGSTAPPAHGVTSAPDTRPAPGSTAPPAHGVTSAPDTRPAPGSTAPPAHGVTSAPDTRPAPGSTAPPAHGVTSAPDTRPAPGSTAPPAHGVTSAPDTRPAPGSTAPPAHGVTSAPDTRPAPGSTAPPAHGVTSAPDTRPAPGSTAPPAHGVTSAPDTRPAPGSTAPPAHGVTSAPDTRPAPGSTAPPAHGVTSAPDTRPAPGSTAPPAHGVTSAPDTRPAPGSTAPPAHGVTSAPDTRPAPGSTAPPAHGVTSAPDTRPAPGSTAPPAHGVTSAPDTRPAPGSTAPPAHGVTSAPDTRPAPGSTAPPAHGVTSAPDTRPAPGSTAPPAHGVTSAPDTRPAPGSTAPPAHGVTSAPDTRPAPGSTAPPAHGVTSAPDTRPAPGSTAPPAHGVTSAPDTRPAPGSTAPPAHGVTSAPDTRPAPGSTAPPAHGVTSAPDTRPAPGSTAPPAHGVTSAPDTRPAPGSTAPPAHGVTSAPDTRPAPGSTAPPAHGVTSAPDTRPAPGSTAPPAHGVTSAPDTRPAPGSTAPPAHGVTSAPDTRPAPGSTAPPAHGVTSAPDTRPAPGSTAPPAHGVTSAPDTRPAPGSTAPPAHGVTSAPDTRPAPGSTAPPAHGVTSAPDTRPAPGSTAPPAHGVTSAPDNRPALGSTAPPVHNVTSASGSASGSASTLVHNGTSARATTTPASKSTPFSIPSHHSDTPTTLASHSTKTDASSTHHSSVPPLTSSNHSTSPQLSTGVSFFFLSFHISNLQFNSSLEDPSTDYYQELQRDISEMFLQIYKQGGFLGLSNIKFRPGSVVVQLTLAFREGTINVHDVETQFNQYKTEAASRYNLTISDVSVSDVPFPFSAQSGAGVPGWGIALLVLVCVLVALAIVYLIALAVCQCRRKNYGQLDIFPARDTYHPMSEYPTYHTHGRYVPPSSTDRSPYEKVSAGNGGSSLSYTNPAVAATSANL

MUC1-ST (4), sequence (P15941 whole entry, looked up): as above
MUC1 TRD-Tn (3), sequence (P15941 whole entry, looked up): as above

koff [1]: 0.000456 s⁻¹ | koff [2]: 0.00144 s⁻¹ | Kd [3]: 10.8 µM | koff [3]: 0.00225 s⁻¹
B1: SN-131 Fab (Fab, V domains shown)
VH: QVQLQQSGAELARPGASVKLSCKASGYTFTNYGLSWVKQRTGQGLEWIGENHPGSGIIYHNEKFRGKATLTADKSSSTAYVQLSSLTSEDSAVYFCARSSGTRGFAYWGQGTLVTVSA
VL: DVLMTQTPLSLPVSLGDQASISCRSSQSIVHSNGNTYLEWYLQKPGQSPKLLIYKVSNRFSGVPDRFSGSGSGTDFTLKISRVEAEDLGVYYCFQGSHGPWTFGGGTKLEIK
